According to patent publication US20210253718A1, “FRIZZLED5 PROTEIN-BINDING AGENTS” (Modmab Therapeutics Corporation, priority 2016, published 2021):

T1: FZD8 cysteine-rich domain (CRD), MYC-tagged and GPI-anchored on CHO cells (human)
T1 sequence (chain, GPI anchor): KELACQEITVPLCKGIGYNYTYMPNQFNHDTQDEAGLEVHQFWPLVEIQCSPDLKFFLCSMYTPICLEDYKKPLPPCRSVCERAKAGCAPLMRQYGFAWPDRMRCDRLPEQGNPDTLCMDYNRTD

B1: Fab-2925 (Fab, V domains shown)
VH: EVQLVESGGGLVQPGGSLRLSCAASGFNLSYSSMHWVRQAPGKGLEWVASIYPSYGSTYYADSVKGRFTISADTSKNTAYLQMNSLRAEDTAVYYCARYGYFGLDYWGQGTLVTVSS
VL: DIQMTQSPSSLSASVGDRVTITCRASQSVSSAVAWYQQKPGKAPKLLIYSASSLYSGVPSRFSGSRSGTDFTLTISSLQPEDFATYYCQQAWVYASLFTFGQGTKVEIK
B2: Fab-2905 (Fab, V domains shown)
VH: EVQLVESGGGLVQPGGSLRLSCAASGFNLSYYYMHWVRQAPGKGLEWVASIYSSYSYTSYADSVKGRFTISADTSKNTAYLQMNSLRAEDTAVYYCARSGYALDYWGQGTLVTVSS
VL: DIQMTQSPSSLSASVGDRVTITCRASQSVSSAVAWYQQKPGKAPKLLIYSASSLYSGVPSRFSGSRSGTDFTLTISSLQPEDFATYYCQQSSWYYGYPFTFGQGTKVEIK

Target: T1, FZD8 cysteine-rich domain (CRD), MYC-tagged and GPI-anchored on CHO cells (human)
Experiment: flow cytometry, CHO-CRD cells

| Binder | median fluorescence |
| --- | --- |
| B1 | 7.7 |
| B2 | 8.17 |
